The supplement of paper PMC10567573

B1: RIPK4 (parent)
chain: VIDLFDEQGLSALHLAAQGRHAQT
B2: SLC35F2 (parent)
chain: SFMPLVIKVTSATSVNLGILTADL

Variants of: B1
Assay: protein stability index of a GFP-peptide fusion (GPS, HEK-293T) (PSI 1-6); higher = more stable
Conditions: c terminus: a fixed tail appended
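Note: lentivirally expressed fusions sorted by FACS into six bins by GFP to DsRed ratio, PSI derived from sequencing read proportions per bin multiplied by bin number.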

Protein stability index: each site, then its substitutions
A17: S 2.83; R 3.17; V 2.92; T 2.7; W 1.75; Y 2.49
G19: V 1.71; P 2.76; D 3.55; H 2.59; M 1.64; Y 2.66; N 3.03; K 3.13; W 1.99; E 3.37; A 2.57; S 2.99; L 1.63; C 2.25; I 1.42; Q 3.07; T 2.37; F 1.91; R 2.44
Q18: G 2.9; F 2.01; C 2.3; S 2.64; M 2.15; V 2.3; A 2.27; T 2.36; L 1.85; K 2.17; R 3.06; D 3.42; N 2.88; I 2.51; E 3.19; H 2.18; P 2.82; Y 2.22; W 2.88
R20: N 3.02; F 2.38; I 2.46; K 3.53; M 2.58; V 2.54; Q 3.29; W 2.02; L 2.34; D 3.82; P 2.66; C 2.6; E 3.7; A 2.66; Y 2.06; S 3.26; H 2.8; G 2.94; T 3.14
H21: S 2.76; D 3.18; Y 2.47; R 2.24; K 3.41; V 2.72; M 2.56; T 3.07; E 3.32; N 3.06; I 2.28; L 2.66; W 1.9; P 3.01; F 2.22; C 2.89; G 2.86; Q 3.23; A 2.41
Q23: R 3.49; D 3.69; A 2.67; C 2.59; K 3.17; W 1.93; E 3.48; V 2.53; G 2.8; T 2.72; F 1.76; N 2.84; H 2.49; M 1.84; S 2.6; L 2.52; P 2.66; I 2.16; Y 2.06
A22: V 2.42; I 2.14; P 2.79; D 3.03; E 3.61; R 3.13; K 3.17; C 2.32; S 2.91; W 1.57; H 2.87; F 2.19; Y 2.23; N 3.09; M 2.4; L 2.1; T 3.03; Q 3.15; G 2.73
T24: V 2.69; A 2.5; K 3.13; F 1.86; H 2.38; I 2.47; R 3.38; S 2.51; N 2.92; Q 2.51; G 3.15; M 2.63; E 4; C 2.57; D 3.76; L 2.09; W 1.86; P 2.41; Y 1.91

Variants of: B2
Assay: as above
Conditions: c terminus: a fixed tail appended

Protein stability index of substitutions, site by site:
A12: K 4.17; I 2.85; P 1.22; E 3.09; H 2.37; M 2.9; C 4.33; N 2.58; L 3.32; D 2.82; G 3.33; F 2.25
P4: A 2.68; R 5.37; W 3.07; S 1.73; H 3.09; C 3.66; E 3.23; L 2.34; M 3.13; V 3.1; G 2.32; Q 4.03; D 1.64; T 2.71; F 1.91
V9: T 1.46; C 3.06; F 3.51; D 1.78; A 2.07; W 2.28; E 1.58; G 2.17; P 1.7; K 1.48; Q 3.26; N 2.39; L 4.15; S 1.56; Y 3.58; R 1.81; I 3.17; H 1.52
M3: D 2.11; Q 2.13; S 3.76; K 2.4; N 3.15; G 3.41; R 1.58; P 3.32; Y 1.96; C 1.59; V 2.06; W 4.7; I 2.15; T 2.79; L 2.73
K8: Q 2.87; G 2.94; S 3.16; M 2.42; H 2.59; N 3.01; E 3.06; C 3.64; V 3.52; Y 3.43; I 3.97; T 3; W 2.13; P 2.19; A 2.83; R 3.26; D 2.75
L5: Y 3.46; K 1.88; H 2.28; E 1.51; T 3.25; W 2.75; M 2.94; A 3.18; G 1.68; I 2.1; R 1.65; C 3.74; P 2.55; N 2.24; S 1.47; Q 2.19; D 1.88; V 2.41
I7: P 1.88; K 1.76; Q 2.26; F 3.03; T 2.19; W 3.77; G 2.17; N 2.21; M 2.87; C 2.11; R 2.16; E 1.49; V 3.05; L 3.42; S 1.89; A 2.13; H 1.57; D 1.98
F2: P 2.47; H 1.71; E 2.65; L 2.42; S 2.92; M 2.47; R 2.01; G 3.11; D 2.12; A 2.38; K 3; V 2.68; Q 3.56; I 3.41; T 2.87; C 2.58; N 2.48
V6: W 4.41; H 2.74; L 2.32; Y 3.21; F 2.02; A 2.02; P 2.06; C 3.92; M 1.36; E 1.24; K 2.88; S 2; R 2.43; T 2.76; D 2.09; Q 1.86; G 3.03; N 2.29; I 2.65
T10: C 2.93; S 2.65; P 1.31; I 4.8; M 2.46; E 2.98; N 2.43; Q 3.38; G 3.08; V 3.4; H 3.25; R 2.69; W 3.57; Y 2.64; D 3.46; F 3.67; K 2.12
S11: V 2.64; A 4.19; D 2.91; K 2.9; F 4.62; C 2.19; M 3.94; Q 2.23; L 1.96; I 4.08; T 2.03; N 4.93; E 2.8
S1: M 2.14; T 3.15; K 5.06; P 3.06; L 3.05; A 3.22; W 3.82; N 3.55; I 3.16; H 2.96; G 2.77; Y 3.38; F 3.08; E 4.28; R 2.98; C 3.77
